# Reference: doi:10.1101/2023.06.05.543739
# What was measured:
# Assay in all cases: ITC
# PER1 1013-1291 = PER1 1013-1291 (UniProt O35973)
# PER2 1132-1252 = PER2 1132-1252 (UniProt O54943)
# [1] = target: hRbBP5 (Isoform 2) (human)
# Chain of UniProt O54943 (O54943 1132-1252): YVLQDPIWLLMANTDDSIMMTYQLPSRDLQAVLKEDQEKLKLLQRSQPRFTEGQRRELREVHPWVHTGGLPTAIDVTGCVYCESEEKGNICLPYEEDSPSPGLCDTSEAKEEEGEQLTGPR
# Chain of UniProt O35973 (O35973 1013-1291): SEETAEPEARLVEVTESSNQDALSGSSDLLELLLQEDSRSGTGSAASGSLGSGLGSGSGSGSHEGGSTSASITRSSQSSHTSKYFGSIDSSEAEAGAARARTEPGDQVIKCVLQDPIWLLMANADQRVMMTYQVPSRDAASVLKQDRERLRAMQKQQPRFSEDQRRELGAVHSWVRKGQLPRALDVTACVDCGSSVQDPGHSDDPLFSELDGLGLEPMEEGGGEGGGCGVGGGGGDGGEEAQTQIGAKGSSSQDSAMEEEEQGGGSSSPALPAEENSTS
substance,measurement,setting,value
WDR5 23-334 N225A (from UniProt P61964 23-334) (domain or fragment; other documents disagree on this pair),Kd,PER1 1013-1291,7 µM
WDR5 23-334 (from UniProt P61964 23-334) (domain or fragment; other documents disagree on this pair),Kd,PER2 1132-1252,50 µM
WDR5 23-334 N225A (from UniProt P61964 23-334) (domain or fragment),Kd,[1],71 µM
